Assay results reported in paper PMC11661448, “Molecular basis for plasma membrane recruitment of PI4KA by EFR3” (Science Advances, 2024).

Legend:
Conditions in all cases: both partners purified
[1] = molecular target: T1, PI4KA/TTC7B/FAM126A ΔC (PI4KA complex) (human, UniProt P42356 1-2102; Q86TV6 1-843; Q9BYI3 1-308); experiment: SEC; Superose 6 Increase in 150 mM NaCl, 20 mM imidazole pH 7.0, 5% glycerol, 0.5 mM TCEP; 7.19 uM PI4KA complex with 61.8 uM EFR3A, or 6.78 uM TTC7B-FAM126A with 102.3 uM EFR3A; peaks checked by SDS-PAGE
T1 construct: phosphatidylinositol 4 kinase III alpha (PI4KA), human, full length; TTC7B, human, full length; FAM126A, human, residues 1 to 308 (lacks the disordered C terminus); Dimer of heterotrimers; A His-Strep tag was cleaved with TEV protease; also called PI4KA-TTC7B-FAM126A (1 to 308); PI4KA-TTC7B-FAM126A complex; source: Sf9 (MultiBac baculovirus), co-expressed, purified (HisTrap, StrepTrap, TEV …)

[2] = molecular target: T2, TTC7B-FAM126A (1 to 308) (human, UniProt Q86TV6 1-843; Q9BYI3 1-308); experiment: BLI; His-EFR3A (wild type or mutant) at 200 nM loaded on anti-penta-His tips, dipped in TTC7B-FAM126A (wild type or mutant) at 500 nM; 25°C, 20 mM HEPES pH 7.5, 150 mM NaCl, 0.01% BSA, 0.002% Tween-20; maximum response compared with wild type
T2 construct: N-terminal His10-2x Strep-TEV tag from the pOPT vector, cleaved with TEV; also called TTC7B-FAM126A ΔC; TTC7B-FAM126A dimer; source: E. coli BL21 DE3 C41, co-expressed, purified (HisTrap, StrepTrap, TEV cleavage, SEC)

[3] = molecular target: T2, TTC7B-FAM126A (1 to 308); experiment: BLI; His-MBP-EFR3A (721 to 791) at 200 nM loaded on anti-penta-His tips, TTC7B-FAM126A titrated; His-MBP responses subtracted; 25°C, 20 mM HEPES pH 7.5, 150 mM NaCl, 0.01% BSA, 0.002% Tween-20; KD by one site specific nonlinear regression of the response against concentration

binding result [2]	Binder	other results
binds	EFR3A (721 to 791) K732E (domain or fragment, human, UniProt Q14156 721-791, looked up, EFR3A, human, residues 721 to 791; source: E. coli BL21 DE3 C41, purified (HisTrap, StrepTrap, SEC); not shown: His10, N-terminal, kept) SNTEEITFEALEKAIDTSGMEEQEKEKRRLVIEKFQKAPFEEIAAQCESKANLLHDRLAQILELTIRPPPS	
binds	EFR3A (721 to 791) A734R (domain or fragment, human, UniProt Q14156 721-791, looked up, EFR3A, human, residues 721 to 791; source: E. coli BL21 DE3 C41, purified (HisTrap, StrepTrap, SEC); not shown: His10, N-terminal, kept) SNTEEITFEALKKRIDTSGMEEQEKEKRRLVIEKFQKAPFEEIAAQCESKANLLHDRLAQILELTIRPPPS	

The remaining lines, values behind:

Binder	binding result [2]	other results
EFR3A (721 to 791) (domain or fragment, human, UniProt Q14156 721-791, looked up, EFR3A, human, residues 721 to 791; No tag cleavage is described for this protein; it was eluted from StrepTrap with desthiobiotin; also called EFR3A C terminus; EFR3A C terminal fragment; source: E. coli BL21 DE3 C41, purified (HisTrap, StrepTrap, SEC); not shown: His10, N-terminal, kept) SNTEEITFEALKKAIDTSGMEEQEKEKRRLVIEKFQKAPFEEIAAQCESKANLLHDRLAQILELTIRPPPS		binding result [1]: binds
EFR3A (721 to 791) I763A (domain or fragment, human, UniProt Q14156 721-791, looked up, EFR3A, human, residues 721 to 791; source: E. coli BL21 DE3 C41, purified (HisTrap, StrepTrap, SEC); not shown: His10, N-terminal, kept) SNTEEITFEALKKAIDTSGMEEQEKEKRRLVIEKFQKAPFEEAAAQCESKANLLHDRLAQILELTIRPPPS	binds	
His-MBP-EFR3A (721 to 791) (domain or fragment, human, UniProt Q14156 721-791, looked up, source: E. coli BL21 DE3 C41, purified (HisTrap, StrepTrap, SEC); not shown: MBP, N-terminal, kept; His10, N-terminal, kept) SNTEEITFEALKKAIDTSGMEEQEKEKRRLVIEKFQKAPFEEIAAQCESKANLLHDRLAQILELTIRPPPS		Kd [3]: ~23.5 nM
EFR3A (721 to 791) F728A (domain or fragment, human, UniProt Q14156 721-791, looked up, EFR3A, human, residues 721 to 791; source: E. coli BL21 DE3 C41, purified (HisTrap, StrepTrap, SEC); not shown: His10, N-terminal, kept) SNTEEITAEALKKAIDTSGMEEQEKEKRRLVIEKFQKAPFEEIAAQCESKANLLHDRLAQILELTIRPPPS	binds	
